In US20190300618A1 (Merck Sharp & Dohme, published 2019):
Substitutions are numbered along the chain they refer to.

Experiments:
Experiment in all cases: flow cytometry, CHO-K1; single column;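 note: CHO-K1 cells transiently transfected with hCD27 alanine mutant constructs, anti-hCD27 antibody binding measured by flow cytometry, 30 min at 4 °C, wild-type hCD27 binding taken as 100%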
D32A = biological target: T1, D32A
T1 construct: also called hCD27 D32A
T1 receptor: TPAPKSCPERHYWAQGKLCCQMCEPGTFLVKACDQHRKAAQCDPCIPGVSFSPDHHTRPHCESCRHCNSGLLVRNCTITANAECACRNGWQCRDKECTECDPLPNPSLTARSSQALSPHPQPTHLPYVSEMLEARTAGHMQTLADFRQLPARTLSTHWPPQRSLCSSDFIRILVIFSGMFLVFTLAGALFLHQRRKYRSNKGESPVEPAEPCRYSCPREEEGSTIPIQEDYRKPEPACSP
Description: (§1) The ability of several anti-hCD27 antibodies to bind to a series of hCD27 alanine mutants was determined using CHO-K1 cells, transiently transfected pCI-neo empty vector, pCI-neo.hCD27 and several pCI-neo.CD27Ala mutant constructs.
(§2) Detached cells were transferred to 96 wells round-bottomed well plates at approximately 1.2×10⁵ cells/well. After spinning down the cells, discarding the supernatants and re-suspending the cells in the residual volume, the primary antibodies were added and incubated for 30 minutes at 4° C. Cells were washed three times with DPBS/BSA 1%, followed by centrifugation, discarding of the supernatants and re-suspension in the residual volume. […] After washing once, antibody binding was detected using the HTS plate reader (FACS Canto II) and FlowJo software for data analysis. Debris, dead cells and doublets were excluded from the analysis. Binding was expressed as the geometric mean of the FITC signal, relative to antibody binding to hCD27, which was set at 100%.

N88A = biological target: T2, N88A
T2 construct: also called hCD27 N88A
T2 receptor: T1 receptor with A32D, N88A
Description: as §1, §2

Q91A = biological target: T3, Q91A
T3 construct: also called hCD27 Q91A
T3 receptor: T1 receptor with A32D, Q91A
Description: as §1, §2

R87A = biological target: T4, R87A
T4 construct: also called hCD27 R87A
T4 receptor: T1 receptor with A32D, R87A
Description: as §1, §2

V49A = biological target: T5, V49A
T5 construct: also called hCD27 V49A
T5 receptor: T1 receptor with A32D, V49A
Description: as §1, §2

V30A = biological target: T6, V30A
T6 construct: also called hCD27 V30A
T6 receptor: T1 receptor with V30A, A32D
Description: as §1, §2

P44A = biological target: T7, P44A
T7 construct: also called hCD27 P44A
T7 receptor: T1 receptor with A32D, P44A
Description: as §1, §2

K31A = biological target: T8, K31A
T8 construct: also called hCD27 K31A
T8 receptor: T1 receptor with K31A, A32D
Description: as §1, §2

W90A = biological target: T9, W90A
T9 construct: also called hCD27 W90A
T9 receptor: T1 receptor with A32D, W90A
Description: as §1, §2

R37A = biological target: T10, R37A
T10 construct: also called hCD27 R37A
T10 receptor: T1 receptor with A32D, R37A
Description: as §1, §2

B1: hCD27.15-6B (humanized hCD27.15, human IgG4, Clone 6B) (antibody, V domains shown)
VH: QVQLVQSGAEVKKPGASVKVSCKASGFIIKATYMHWVRQAPGQRLEWMGRIDPANGETKYDPKFQVRVTITADTSASTAYMELSSLRSEDTAVYYCARYAWYFDVWGQGTLVTVSS
VL: DIQMTQSPSSLSASVGDRVTITCRASENIYSFLAWYQQKPGKAPKLLIYHAKTLAEGVTSRFSGSGSGTDFTLTISSLQPEDSATYYCQHYYGSPLTFGQGTRLEIKR
notes: humanized version of hCD27.15 from WO2012/004367 with identical CDR regions; also called hCD27.15 (humanized 6B); hCD27.15 6B humanized antibody
D32A
  % of WT hCD27 binding (geo mean FITC): 50.6%
N88A
  % of WT hCD27 binding (geo mean FITC): 132%
Q91A
  % of WT hCD27 binding (geo mean FITC): 136%
R87A
  % of WT hCD27 binding (geo mean FITC): 114%
V49A
  % of WT hCD27 binding (geo mean FITC): 69%
V30A
  % of WT hCD27 binding (geo mean FITC): 82.6%
P44A
  % of WT hCD27 binding (geo mean FITC): 68.7%
K31A
  % of WT hCD27 binding (geo mean FITC): 30.3%
W90A
  % of WT hCD27 binding (geo mean FITC): 93.8%
R37A
  % of WT hCD27 binding (geo mean FITC): 106%
